Tested on: MS2 coat protein
Assay: apparent KD of MS2 coat protein; designed switch direction (-1 OFF switch, 1 ON switch): 1; higher = weaker reporter binding
Procedure, shortened: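 Designed RNA switches sharing common flanks were transcribed on Illumina chips by stalled E. coli RNA polymerase. They were titrated with SNAP-549-labelled MS2 coat protein, from 0.7 or 1.5 nM doubling to 3 µM, in Tris-HCl pH 7.5 buffer with KCl, MgCl2, BSA, DTT, tRNA and Tween-20. Titrations ran without input, with 200 uM small-molecule ligand, or with an oligonucleotide input. The apparent KD of each design is the median over its clusters, after curve-fitting of normalised cluster fluorescence.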

[1] = Eterna round: R95, input ligand: FMN 200 uM
[2] = Eterna round: R95, input ligand: microRNA oligo, concentration not stated
[3] = Eterna round: R95, input ligand: none
[4] = input ligand: microRNA oligo, concentration not stated

Row | Sequence | apparent KD of MS2 coat protein [1] [nM] | apparent KD of MS2 coat protein [2] [nM] | apparent KD of MS2 coat protein [3] [nM] | apparent KD of MS2 coat protein (input ligand: FMN 200 uM) [nM] | apparent KD of MS2 coat protein [4] [nM] | apparent KD of MS2 coat protein (input ligand: none) [nM]
1 | GGUCCAGCCUGAGCUGGACAAAAGCAUGUACAUGAGGAUCACCCAUGUCAUGUACAAGCUUUUUGCUCGUCAUAAAG [Mat - hsa-mir-208a - 97] (puzzle: Sensor for hsa-mir-208a) | 228 | 18.2 | 334 | – | – | –
2 | ACAUGAGACCGAGGAUAUAUUGUACCUACAUGUGACAUGAGGAUCACCCAUGUGGUAAGUAUGACAUAGAAGGCGGAGAUAUGU [Equivalance 92 - Jieux - Same State NG 2] (Eterna round: R96, puzzle: Same State NG 2) | – | – | – | 19.6 | 25.9 | 30.1
3 | GGUCCAGCCUGAGCUGGACAAAAGCAUGUACAUGAGGAUCACCCAUGUCAUGUACAAGCUUUUUGCUCGUCAAAAGG [Mat - hsa-mir-208a - 102] (puzzle: Sensor for hsa-mir-208a) | 54.3 | 16 | 89.5 | – | – | –
4 | ACAAGCUUUUCUGUAUUGAAAGGUGGGAUACAUGAGGAUCACCCAUGUUUGUUUGUUUAUUGUUUUCCUCGUCUUAU [JR_SHM208A_Sub089] (puzzle: Sensor for hsa-mir-208a) | 71 | 27.5 | 66.2 | – | – | –
5 | ACAUGAGGAUCACCCAUGUAUGCUCAGGAAACUGUGCAUCGUGAGGAUAUGGAUCCUAAUUGGAUCCAGAAGGCAUGUAUUAUU [Fiskers NG3ss - 27] (Eterna round: R96, puzzle: Same State NG 3) | – | – | – | 321 | 23.9 | 153
6 | UAGUAUUAGCGAGGAUAUCGUAUGUUCAAUUUUUUAUAUUGUUUACAUGAGGAUCACCCAUGUUACGAGAAGGCGCAUGGGAUU [JR_SSNG2_Sub081] (Eterna round: R96, puzzle: Same State NG 2) | – | – | – | – | 371 | –
7 | AGAUGUUAAUCAGGAUAUGGGCACAUGAGGAUCACCCAUGUAACGUAGAUACGAUGUGGUCAAGUCUAGAAGGGAUGGCUAACA [SameState NG2 #79] (Eterna round: R96, puzzle: Same State NG 2) | – | – | – | 49.9 | 68.2 | 90.7
8 | GGUUUAGUCGAGUGCCAUUCCACUCGAAAACAUGAGGAUCACCCAUGUUUGGGACAAGCUUUGCUCCUCGUCUUUCC [Inertequ] (puzzle: Sensor for hsa-mir-208a) | 259 | 75.8 | 371 | – | – | –
9 | GUUACAUGAGGAUCACCCAUGUAUGUGUGGGAGUAAGUGUCUUAGGAUAUCUAUUAGUUAAAUUAAGAGAAGGAAGAUUGUUGU [JMF's solution 15] (Eterna round: R96, puzzle: Same State NG 3) | – | – | – | – | 91.4 | –
10 | GCAGUACAUGAGGAUCACCCAUGUCUCUAAAGUCGAGGAUAUGGGCAGGUUAUAUCCGAACCAGAAGGCGAACUGC [SS1 Teenbexe 11] (puzzle: Same State 1) | 68.6 | 260 | 527 | – | – | –
11 | GGAGCCGGCCUAGGAUAUUUCAUUAAAAUACAUGAGGAUCACCCAUGUAGGCCAGAAGGCCUUGGGAAGAAGGAGGUCGGCUCC [Loop Effect - U24,U29] (Eterna round: R96, puzzle: Same State NG 2) | – | – | – | 9.56 | 17.6 | 23.1
12 | UGAGCCGGCACUGAGGAUAUUCAUAUUAAAACAUGAGGAUCACCCAUGUAGGCCAGAAGGCCUUGGGAGAAGGCAGGUCGGCUCA [Mat - Same State 2 - Mod of UCT - D62] (Eterna round: R96, puzzle: Same State 2) | – | – | – | 19.5 | 190 | 311
13 | UGGAGAAGUCAAGGAUAUGCUACCGUUUCGGUAGCAGAAGGUGAUCACAUGAGGAUCACCCAUGUAUGCAUGCGUGAGCGUGCU [JL SSNG1 3.55] (Eterna round: R96, puzzle: Same State NG 1) | – | – | – | 337 | 15.2 | 125
14 | AUAAAACAUGAGGAUCACCCAUGUCAACAAAGUCGAGGAUAUGGUCAAAUAAAAUAAGAACCAGAAGGCGAAUAAU [salish99_ss1_r3_029] (puzzle: Same State 1) | 17.8 | 26.3 | 25.3 | – | – | –
15 | CUAUCUACAGGUGUCUUUGCUCGUCUUAUACAUGAGGAUCACCCAUGUUAUAGCCCGGUGCUUGCGCUGGGCUGAUU [JL ViennaUCT Tearor mod 6] (puzzle: Sensor for hsa-mir-208a) | 79.8 | 13.2 | 95.7 | – | – | –
16 | AGUCCAGCCAAAGCUGGACAAAAGCAUGUACAUGAGGAUCACCCAUGUCAUGUACAAGCUUUUUGCUCGUCUUAAUA [Mat - hsa-mir-208a - Mod of JL - D38] (puzzle: Sensor for hsa-mir-208a) | 464 | 16 | 611 | – | – | –

Row | Sequence | apparent KD of MS2 coat protein [1] [nM] | apparent KD of MS2 coat protein [2] [nM] | apparent KD of MS2 coat protein [3] [nM] | apparent KD of MS2 coat protein (input ligand: FMN 200 uM) [nM] | apparent KD of MS2 coat protein [4] [nM] | apparent KD of MS2 coat protein (input ligand: none) [nM]
17 | ACAAGCUUUUUAGGAAGAGAAGAAAGGGAACAUGAGGAUCACCCAUGUAAGUGGAAUGAAGAAGGAGCACGUCUUAU [JR_SHM208A_Sub096] (puzzle: Sensor for hsa-mir-208a) | 54.2 | 17.5 | 61 | – | – | –
18 | GGAGCCGGCACUGAGGAUAUUCAUAUUAAAACAUGAGGAUCACCCAUGUAGGCCAGAAGGCCAUGGGAGAAGGCAGGUCGGCCCG [Bibimoar - 7] (puzzle: Same State 2) | 46.7 | 211 | 416 | – | – | –
19 | UAGAACAAGCUUUUUGCCCGUCUUAUAUAACAUGAGGAUCACCCAUGUAAGGUGAAAGUUAGAGAGUGGAGGUUGAA [JR_SHM208A_Sub048] (puzzle: Sensor for hsa-mir-208a) | 216 | 193 | 156 | – | – | –
20 | UCUGCAAGAACAGGAUAUGGGUUCAGAGCGGGAGUGCGCUUUGACACAUGAGGAUCACCCAUGUCCCAGAAGGGUUCAUGCGGC [Eseseste] (Eterna round: R96, puzzle: Same State NG 2) | – | – | – | 62.7 | 484 | 364
21 | AAGCUCGUGUGAGGAUAUGCCGCCGUUUCGGCUGCAGAAGGUGCUACGUUACAUGAGGAUCACCCAUGUCUCUGUUGUUUCGUA [salish99_SSNG1_r04_952] (Eterna round: R96, puzzle: Same State NG 1) | – | – | – | – | 37 | –
22 | UUAAUGAUGUUAGGAUAUACAUGAGGAAUCCUCGUAGAAGGAACAUGACAUGAGGAUCACCCAUGUAGCGCUCCGUAGAGCGCA [JL SSNG1 1.18] (Eterna round: R96, puzzle: Same State NG 1) | – | – | – | 2460 | 18.5 | 60.3
23 | GGUAAGAAUUAAGGAUAUUGAAUACAUAUGUUUAACAUGAGGAUCACCCAUGUGGGUUGCGGUGUCGAGAAGGUAAAAUAAUAG [Mat - same State NG 2 - JL mod - D101] (Eterna round: R96, puzzle: Same State NG 2) | – | – | – | 269 | 166 | 311
24 | CGGGUCGUGCUAGGAUAUCUAGGAUAUGGACGAGGAUUACCCGAGCAGCAUUAGCGCACCAGAGGAGAGAAGGAGCGUGAUGCG [pwkr ssNG2 2F5 2FMN.15] (Eterna round: R96, puzzle: Same State NG 2) | – | – | – | 287 | 42.2 | 109
25 | AACAUGAGGAUCACCCAUGUCAGGCCGCCGGCCUACAUGAGGAAGGAUAUAGCCUCGAAAAUUGGCUAGAAGGUCCUCAUGAAU [Letemaar] (Eterna round: R96, puzzle: Same State NG 3) | – | – | – | 115 | 4.24 | 26.1
26 | ACAUGAGGAUCACCCAUGUCGGAUAAGGAAACGACCACGUGGGAGGAUAUUGUAACGCGUCUGUACGAGAAGGCCCAUUCCAGU [Eternabot solution 42] (Eterna round: R96, puzzle: Same State NG 3) | – | – | – | 29.2 | 66.8 | 80.8
27 | GGAGCCAAGGCAGGAUAUUCAUAUUAAUAACACAUGAGGAUCACCCAUGUGGCCAGAAGGCCUUGGGAGAAGGGCCAUGGCUCG [Xeonanis - 13 mod9] (Eterna round: R96, puzzle: Same State NG 2) | – | – | – | 28 | 57.7 | 95.3
28 | AAUUUAAUACAUGAGGAUCACCCAUGUAAUACUUGUAAGAUCAAGGAUAUCAGCUCGUUUAGAGCUGAGAAGGUGAUCACAUGU [SSNG3/19-D3] (Eterna round: R96, puzzle: Same State NG 3) | – | – | – | – | 40.7 | –
29 | GUGUUACAUGAGGAUCACCCAUGUUGUUGUAGAUAAGGAUAUAUGGUAACGAGAGAAAUAAUAGAAGGUAUUAGGC [JR_SS1_Sub061] (puzzle: Same State 1) | – | 34.7 | – | – | – | –
30 | GCUGGAAACCACAUGAGGAUCACCCAUGUUCCGGAAACGGCACAGGAUAUCUGUCCGAAAAGGUCAGAGAAGGGUGAAACCAGC [Fiskers NG3ss - 83] (Eterna round: R96, puzzle: Same State NG 3) | – | – | – | 263 | 114 | 188
31 | AAAGGAUGAUGUUACAUGAGGAUCACCCAUGUUGUGAUAACUAAGGAUAUGUGUUUAACUAGUUAAUAGAAGGUAGGAUCAUAA [AK SSNG3-V2-3] (Eterna round: R96, puzzle: Same State NG 3) | – | – | – | 150 | 84.2 | 118

— the supplement of paper PMC9170038
